Assay results reported in patent US20250295792A1 (ZONHON BIOPHARMA INSTITUTE, published 2025).
Where no end group is shown, it is not given here. [ ]: non-standard residue; d: D form. 2Thi = N[C@@H](Cc1cccs1)C(=O)O

B1: Lys-BKm01-SPA10K (peptide)
peptide: KRPPGXSPFR
modifications: {THI} (β-2-thiophenylalanine) at position 6; N-terminal single modification with M-SPA-10K (straight-chain mPEG succinimidyl propionate, about 10 kDa)
B2: Lys-BKm01-YNHS10K (peptide)
peptide: KRPPGXSPFR
modifications: {THI} (β-2-thiophenylalanine) at position 6; N-terminal single modification with M-YNHS-10K (branched-chain mPEG succinimidyl acetate, about 10 kDa)

Target: B2 receptor
Sequence (P30411 whole entry): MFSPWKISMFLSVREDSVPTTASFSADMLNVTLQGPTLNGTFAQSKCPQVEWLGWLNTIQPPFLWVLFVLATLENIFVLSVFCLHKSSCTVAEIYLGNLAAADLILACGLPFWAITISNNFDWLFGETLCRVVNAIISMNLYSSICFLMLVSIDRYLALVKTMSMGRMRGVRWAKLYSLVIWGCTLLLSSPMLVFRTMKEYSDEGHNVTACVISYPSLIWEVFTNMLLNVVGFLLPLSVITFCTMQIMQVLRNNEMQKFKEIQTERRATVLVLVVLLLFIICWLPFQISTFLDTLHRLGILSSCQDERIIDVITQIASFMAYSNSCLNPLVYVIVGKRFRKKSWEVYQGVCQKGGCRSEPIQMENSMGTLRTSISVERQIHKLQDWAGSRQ
Assay: cell-based or functional assay

**Q.** With KRPPGFSPFR [Lys-BK (wild-type lysyl bradykinin)] as the binder, how does the “Relative affinity activity (B2-NFAT-CHO-K1 luciferase reporter gene assay, from EC50)” value (“Relative affinity activity” for short) read?
**A.** Its value is 100%.

**Q.** How did the “Relative affinity activity” value turn out when KRPPGXSPFR ({THI} (β-2-thiophenylalanine) at position 6: KRPPG{THI}SPFR) [Lys-BKm01] was run?
**A.** The value was 100%.

**Q.** Which “Relative affinity activity” value does the source give for KRPPGXSPFRR ({THI} (β-2-thiophenylalanine) at position 6: KRPPG{THI}SPFRR) [Lys-BKm06] here?
**A.** Its value is 90%.

**Q.** How did the “Relative affinity activity” value turn out when KRPPGXSPXR ({THI} (β-2-thiophenylalanine) at positions 6 and 9: KRPPG{THI}SP{THI}R) [Lys-BKm07] was run?
**A.** The value was < 10%.

**Q.** Which “Relative affinity activity” value does the source give for KRPPGFSPHR [Lys-BKm04] here?
**A.** The value was < 10%.

**Q.** How did the “Relative affinity activity” value turn out when KRPPG[2Thi]SPFRKRPPG[2Thi]SPFR [Lys-BKm14] was run?
**A.** The value was 100%.

**Q.** Which “Relative affinity activity” value does the source give for KRPPG[2Thi]SPFRRPPG[2Thi]SPFR [Lys-BKm12] here?
**A.** Its value is 100%.

**Q.** Which “Relative affinity activity” value does the source give for KRPPGHSPFR [Lys-BKm03] here?
**A.** The value was < 10%.

Target: B2 receptor
Assay: cell-based or functional assay
Remark: another data set of the same source

**Q.** B1 was tested. Which “EC50 value (B2 receptor reporter gene assay, FIG. 4a)” value did it give?
**A.** The value was 90.8 µg/mL.

**Q.** What about the “fold activity against Lys-BKm01-YNHS10K (B2 receptor reporter gene assay)” value of the same binder?
**A.** The value was ~4 fold.

**Q.** Which “EC50 value (B2 receptor reporter gene assay, FIG. 4a)” value does the source give for B2 here?
**A.** The value was 347 µg/mL.
